The supplement of paper PMC9170038

Tested on: MS2 coat protein
Assay: apparent KD of MS2 coat protein; designed switch direction (-1 OFF switch, 1 ON switch): -1; higher = weaker reporter binding
Method in brief: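 Designed RNA switches sharing common flanks were transcribed on Illumina chips by stalled E. coli RNA polymerase. They were titrated with SNAP-549-labelled MS2 coat protein, from 0.7 or 1.5 nM doubling to 3 µM, in Tris-HCl pH 7.5 buffer with KCl, MgCl2, BSA, DTT, tRNA and Tween-20. Titrations ran without input, with 200 uM small-molecule ligand, or with an oligonucleotide input. The apparent KD of each design is the median over its clusters, after curve-fitting of normalised cluster fluorescence.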

[1] = Eterna round: R95, input ligand: microRNA oligo, concentration not stated
[2] = input ligand: microRNA oligo, concentration not stated
[3] = Eterna round: R95, input ligand: FMN 200 uM
[4] = Eterna round: R95, input ligand: none

| Sequence | apparent KD of MS2 coat protein (input ligand: FMN 200 uM) [nM] | apparent KD of MS2 coat protein (input ligand: none) [nM] | apparent KD of MS2 coat protein [1] [nM] | also measured |
| --- | --- | --- | --- | --- |
| GUGCCGCGAGGAUAUACAGACGGGUCCAGUGCGUGUCUCGGACUUGAGGAUCACCCAAGUAGAAGGCGUCUCAG [salish99_ex2_r4_614] (Eterna round: R97, puzzle: Exclusion 2) | 16.7 | 31 | – | – |
| GUGGCACAUGAGGAUCACCCAUGUCAGGAUAUCGCGUGUUUUUUUUCGGCCGCGCGCGCGAGAAGGGACGUCUU (puzzle: Exclusion 1) | – | – | 22.8 | – |
| GUGGGCUUUUAGGUUCUUGACAUGAGGAUCACCCAUGUGCUUGUCUUGCUGGCUGGCGGGUCGUCGGUCGGGCUUGU (Eterna round: R97, puzzle: Sensor, turn-off variant 1) | 559 | 646 | – | – |
| GUGGGUUACAUGAGGAUCACCCAUGUAUAGUGGGAAAAGAUAUAGGAUAUAAUAUAAAAAUUAUAUUAGAAGGAUAGAGACUAG [AK ExNG3-1.1] (Eterna round: R96, puzzle: Exclusion NG 3) | 727 | 896 | – | apparent KD of MS2 coat protein [2]: 260 nM |
| GUGGGUUACAUGAGGAUCACCCAUGUAUAGUGGGAAGAGAUAUAGGAUAUAAUGUAAAAAUUAUAUUAGAAGGAUAGAGACUAG [AK ExNG3-1.3] (Eterna round: R96, puzzle: Exclusion NG 3) | 344 | 553 | – | apparent KD of MS2 coat protein [2]: 135 nM |
| GUGGUCCGAGGAUAUAUUAUGUGAUACAUGAGGAUCACCCAUGUUAUAUAAUGGAUGUUAGUAGAAGGCGGACUAC [Mat - Exclusion 5 - JL mod - D83] (puzzle: Exclusion 5) | – | – | 56 | apparent KD of MS2 coat protein [3]: 107 nM; apparent KD of MS2 coat protein [4]: 49.1 nM |
| GUGUAACAUGAGGAUCACCCAUGUCAGGAUAUCCGCUUUAACUAAAUAAAUAAAUAGUGGAGAAGGGACAGCGC [-13.9, -13.37 kcal, 36% A] (Eterna round: R97, puzzle: Exclusion 1) | 55.7 | 46.8 | – | – |
| GUGUACAGAGGAUAUACACGAAUCUAGCGAAGCUAGGUUUGACAUGAGGAUCACCCAUGUAGAAGGCUGUACAC [Dot plot directed A detuned for Vienna 1] (puzzle: Exclusion 2) | – | – | 16.7 | – |
| GUGUACAGAGGAUAUAUAUGAGCUAGGAAACUAGCAAACUCACAUGAGGAUCACCCAUGUAGAAGGCUGUACAC [Ex2: 722] (Eterna round: R96, puzzle: Exclusion 2) | 220 | 26.9 | – | apparent KD of MS2 coat protein [2]: 22.4 nM |
| GUGUACAGAGGAUAUAUAUGAGCUAGGAAACUAGCAAGAUCACAUGAGGAUCACCCAUGUAGAAGGCUGUACAC [Ex2: 735] (Eterna round: R96, puzzle: Exclusion 2) | – | – | – | apparent KD of MS2 coat protein [2]: 102 nM |
| GUGUAGACAGGAUAUGCUUUGAGCAUAUGAGAGUAUGCUCGACAUGAGGAUCACCCAUGUAGAAGGGUCUACAC [LRO-Excl2-02] (puzzle: Exclusion 2) | – | – | 12.9 | – |
| GUGUAGAUAGGAUAUGCUGGAAUCUAGCGAAGCUAGGUUCCACAUGAGGAUCACCCAUGUAGAAGGGUCUACAC [Dot plot directed A v11] (puzzle: Exclusion 2) | – | – | 127 | – |
| GUGUAGCUAGGAUAUACAUGAGGAUCACCCAUGUGAAUAAGAUAGAAUAAGAUAAAGUGUAGAAGGAGUAGUGU [Excluse me!!! 15 - Jieux - Exclusion 3] (puzzle: Exclusion 3) | – | – | 18.2 | apparent KD of MS2 coat protein [3]: 18.2 nM; apparent KD of MS2 coat protein [4]: 18.7 nM |
| GUGUAGUCAGGAUAUACAUAGGAAGAGAAGAGAAGAGAAGGACAUGAGGAUCACCCAUGUAGAAGGGACAGUGU [Excluse me!! 5 - Jieux - Exclusion 2] (puzzle: Exclusion 2) | – | – | 43.6 | – |
| GUGUAGUCAGGAUAUACAUAGGAAGAGAAGAGAAGAUAAGUACAUGAGGAUCACCCAUGUAGAAGGGACAGUGU [Excluse me!! 7 - Jieux - Exclusion 2] (puzzle: Exclusion 2) | – | – | 32.1 | – |
| GUUAACGAUCAGGAUAUAUCAAAUCAUAGCUUGAUAGAAGGGAUCACAUGAGGAUCACCCAUGUGAUCUUCUUU [jl-ex6-4.14 ViennaUCT mod] (Eterna round: R97, puzzle: Exclusion 6) | 15.3 | 11.7 | – | – |
| GUUAAGGUAGGAUAUACGAUAAUAUAGGGUAGAUAUAUAACACAUGAGGAUCACCCAUGUAGAAGGACCAAUUG [Mat - Exclusion 2 - Mod of my Tesla design - D53] (puzzle: Exclusion 2) | – | – | 28.5 | – |
| GUUACACAUGAGGAUCACCCAUGUGAGGAUAUGGAUUCGUUAGAAGUAGAAGAUGGAUCCAGAAGGCGCGUGAG [JR_Ex1_Sub079] (Eterna round: R97, puzzle: Exclusion 1) | 160 | 62.7 | – | – |
| GUUAUGCAGCAGGAUAUCGAUCCGCGGUAUGAUCGAGAAGGGCUGACAUGAGGAUCACCCAUGUGCGUCCUAGG [jl-ex6-4.46 ViennaUCT mod] (Eterna round: R97, puzzle: Exclusion 6) | 170 | 36.6 | – | – |
| GUUGAUGUAGGAUAUACAUGAGGAUCACCCAUGUUGGUGCCCUAACCUAUUGGUGUACGUAGAAGGGCGGACUC [Eternabot (L2) Solution 96] (Eterna round: R97, puzzle: Exclusion 3) | 103 | 95.2 | – | – |
| GUUGGUAAGUCAGGAUAUCCCUGUAAUGGCAGCGGAGAAGGGACAUGAGGAUCACCCAUGUGAACCUCCGGCGGAUAAACCCGC [Ancelave] (Eterna round: R96, puzzle: Exclusion NG 1) | 111 | 23.6 | – | apparent KD of MS2 coat protein [2]: 29.5 nM |
| GUUGUUUAUGUAGGAUAUGCAAGGCGAACCUAAGCAGAAGGACAUGAGGAUCACCCAUGUAUUGCGGUCUGCGUUCAGAUCGCU [salish99_ExNG1_r4_014] (Eterna round: R96, puzzle: Exclusion NG 1) | 56.8 | 20.1 | – | apparent KD of MS2 coat protein [2]: 16.3 nM |
| GUUUGACAUGAGGAUCACCCAUGUAAGGAUAUACGAGUAGAUGAUAGAUAGAUAGUAUGUAGAAGGUACGUGUU [EX1 #61] (Eterna round: R97, puzzle: Exclusion 1) | 74.3 | 92.8 | – | – |
| GUUUGCGCAGGAUAUACAUGAGGAUCACCCAUGUGAGAGAAAUAAGUGAGGAAGAAAAGUAGAAGGGCGUGACG [Mat - Exclusion 3 - Mod of Salish D71] (puzzle: Exclusion 3) | – | – | 34 | apparent KD of MS2 coat protein [3]: 171 nM; apparent KD of MS2 coat protein [4]: 42.8 nM |
| GUUUUAUAUGAAGGAUAUACUUAACAUGAGGAUCACCCAUGUGGUGUUGUGAGUGAGUGAGUUUAGUAGAAGGUCAAUUCUUUU [JMF's solution 99] (Eterna round: R96, puzzle: Exclusion NG 2) | 622 | 408 | – | apparent KD of MS2 coat protein [2]: 593 nM |
| GUUUUCAGACGGAGAUCCUACAUGAGGAUCACCCAUGUCUCUCAAGCUAAUUGCUCGUCUUAUUCUCCUCUGUUCUC [Elimod 39 - Jieux - Sensor, turn-off variant 1] (Eterna round: R97, puzzle: Sensor, turn-off variant 1) | 35.6 | 41 | – | – |
